The target in test [1] is T1, Ins 5 type mutant CALR protein on UT-7/TPO CALR Ins 5 cells (UniProt P27797 18-417).
T1 sequence (looked up): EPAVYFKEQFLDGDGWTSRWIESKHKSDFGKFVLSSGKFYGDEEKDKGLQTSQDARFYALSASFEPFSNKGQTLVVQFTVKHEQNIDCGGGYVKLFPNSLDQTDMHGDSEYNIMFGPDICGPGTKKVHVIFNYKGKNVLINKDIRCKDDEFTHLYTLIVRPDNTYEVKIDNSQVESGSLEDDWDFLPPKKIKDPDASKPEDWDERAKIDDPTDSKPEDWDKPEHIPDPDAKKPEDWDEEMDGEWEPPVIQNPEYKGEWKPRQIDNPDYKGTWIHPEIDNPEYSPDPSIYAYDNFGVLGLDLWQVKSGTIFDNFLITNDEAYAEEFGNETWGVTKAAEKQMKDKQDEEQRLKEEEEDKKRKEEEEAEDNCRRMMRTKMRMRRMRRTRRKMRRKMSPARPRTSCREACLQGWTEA
As to the kind of experiment: cell-based or functional assay.

Test [2] has as its target T2, protein having an Fc region and a His-tag added to the N-terminus of SEQ ID NO: 1.
T2 construct: also called mutant CALR protein (antigen of the BLItz measurement); not shown: Fc region and His-tag at the N-terminus
T2 chain: RRMMRTKMRMRRM
Nature of the test: BLItz biolayer interferometry, Fc/His-SEQ ID NO: 1 protein on the biosensor. The method in brief:
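The Fc/His-tagged protein was loaded at 0.1 mg/mL onto Anti-Penta-HIS or Protein A biosensors. Antibodies were run at 500, 100 and 50 nM by biolayer interferometry, and the dissociation constant was derived from these binding curves.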
(In BLI a coated tip is dipped into the sample, and binding shifts an interference pattern.)

Residue numbers refer to the chain shown, from its start.

The text below walks through data of patent US20240092890A1 (JUNTENDO EDUCATIONAL FOUNDATION, published 2024).

B1: Antibody 19 (bispecific antibody)
heavy: QVQLQQSGAELVKPGSSVKISCKASGYTFTRNFIHWIKQQPGNGLEWIGWIFPGDGDTEYNQKFNGKATLTADKSSSTAYMQLSSLTSEDSAVYFCARGNYNYEYFDYWGQGVMVTVSSASTKGPSVFPLAPSSKSTSGGTAALGCLVKDYFPEPVTVSWNSGALTSGVHTFPAVLQSSGLYSLSSVVTVPSSSLGTQTYICNVNHKPSNTKVDKRVEPKSCGGGGSQVQLVQSGGGVVQPGRSLRLSCKASGYTFTRYTMHWVRQAPGKGLEWIGYINPSRGYTNYNQKVKDRFTISRDNSKNTAFLQMDSLRPEDTGVYFCARYYDDHYSLDYWGQGTPVTVSSGGGGSGGGGSGGGGSDIQMTQSPSSLSASVGDRVTITCSASSSVSYMNWYQQTPGKAPKRWIYDTSKLASGVPSRFSGSGSGTDYTFTISSLQPEDIATYYCQQWSSNPFTFGQGTKLQITRGGGGSQVQLQQSGAELVKPGSSVKISCKASGYTFTRNFIHWIKQQPGNGLEWIGWIFPGDGDTEYNQKFNGKATLTADKSSSTAYMQLSSLTSEDSAVYFCARGNYNYEYFDYWGQGVMVTVSSASTKGPSVFPLAPSSKSTSGGTAALGCLVKDYFPEPVTVSWNSGALTSGVHTFPAVLQSSGLYSLSSVVTVPSSSLGTQTYICNVNHKPSNTKVDKRVEPKSCHHHHHH
light: DIQMTQSPASLSASLGETVSIECLASEDIYSYLAWYQQKPGKSPQLLIFAANRLQDGVPSRFSGSGSGTQFSLKISGMQPEDEGDYFCLQGSKFPYTFGPGTKLELNRTVAAPSVFIFPPSDEQLKSGTASVVCLLNNFYPREAKVQWKVDNALQSGNSQESVTEQDSKDSTYSLSSTLTLSKADYEKHKVYACEVTHQGLSSPVTKSFNRGEC
notes: B3 Fab heavy chain, hOKT3 scFv and a second B3 Fab heavy chain in one polypeptide, with the B3 light chain
What is called Kd is the equilibrium constant for the complex coming apart. Read a low Kd as tighter binding. B1: the “EC50 of cytotoxic activity (calcein release, T-LAK effector cells)” value (“EC50 … (calcein release, T-LAK effector cells)” below) in test [1] is 3710 pM. This molecule also displayed a dissociation constant Kd in test [2] of 0.000728 µM.

B2: Antibody 20 (bispecific antibody)
heavy: QVQLVQSGGGVVQPGRSLRLSCKASGYTFTRYTMHWVRQAPGKGLEWIGYINPSRGYTNYNQKVKDRFTISRDNSKNTAFLQMDSLRPEDTGVYFCARYYDDHYSLDYWGQGTPVTVSSGGGGSGGGGSGGGGSDIQMTQSPSSLSASVGDRVTITCSASSSVSYMNWYQQTPGKAPKRWIYDTSKLASGVPSRFSGSGSGTDYTFTISSLQPEDIATYYCQQWSSNPFTFGQGTKLQITRGGGGSQVQLQQSGAELVKPGSSVKISCKASGYTFTRNFIHWIKQQPGNGLEWIGWIFPGDGDTEYNQKFNGKATLTADKSSSTAYMQLSSLTSEDSAVYFCARGNYNYEYFDYWGQGVMVTVSSASTKGPSVFPLAPSSKSTSGGTAALGCLVKDYFPEPVTVSWNSGALTSGVHTFPAVLQSSGLYSLSSVVTVPSSSLGTQTYICNVNHKPSNTKVDKRVEPKSCHHHHHH
light: B1 light
notes: hOKT3 scFv fused to the N-terminus of the B3 Fab heavy chain
In the case of B2, the “EC50 … (calcein release, T-LAK effector cells)” value in test [1] is 1460 pM. In addition, the Kd in test [2] was found to be 0.0124 µM.

B3: Antibody 22 (bispecific antibody)
heavy: QVQLVQSGGGVVQPGRSLRLSCKASGYTFTRYTMHWVRQAPGKGLEWIGYINPSRGYTNYNQKVKDRFTISRDNSKNTAFLQMDSLRPEDTGVYFCARYYDDHYSLDYWGQGTPVTVSSGGGGSGGGGSGGGGSDIQMTQSPSSLSASVGDRVTITCSASSSVSYMNWYQQTPGKAPKRWIYDTSKLASGVPSRFSGSGSGTDYTFTISSLQPEDIATYYCQQWSSNPFTFGQGTKLQITRGGGGSQVQLQQSGAELVKPGSSVKISCKASGYTFTRNFIHWIKQQPGNGLEWIGWIFPGDGDTEYNQKFNGKATLTADKSSSTAYMQLSSLTSEDSAVYFCARGNYNYEYFDYWGQGVMVTVSSASTKGPSVFPLAPSSKSTSGGTAALGCLVKDYFPEPVTVSWNSGALTSGVHTFPAVLQSSGLYSLSSVVTVPSSSLGTQTYICNVNHKPSNTKVDKRVEPKSCAAAGGGQPREPQVYTLPPSREEMTKNQVSLTCLVKGFYPSDIAVEWESNGQPENNYKTTPPVLDSDGSFFLYSKLTVDKSRWQQGNVFSCSVMHEALHNHYTQKSLSLSPGK
light: B1 light
notes: hOKT3 scFv, B3 Fab heavy chain and CH3 domain in one polypeptide, with the B3 light chain
As for B3, the “EC50 … (calcein release, T-LAK effector cells)” value in test [1] is 101 pM. This molecule returned a Kd in test [2] of under 1e-06 µM.

B4: Antibody 23 (bispecific antibody)
heavy: QVQLQQSGAELVKPGSSVKISCKASGYTFTRNFIHWIKQQPGNGLEWIGWIFPGDGDTEYNQKFNGKATLTADKSSSTAYMQLSSLTSEDSAVYFCARGNYNYEYFDYWGQGVMVTVSSASTKGPSVFPLAPSSKSTSGGTAALGCLVKDYFPEPVTVSWNSGALTSGVHTFPAVLQSSGLYSLSSVVTVPSSSLGTQTYICNVNHKPSNTKVDKRVEPKSCHHHHHH
light: QVQLVQSGGGVVQPGRSLRLSCKASGYTFTRYTMHWVRQAPGKGLEWIGYINPSRGYTNYNQKVKDRFTISRDNSKNTAFLQMDSLRPEDTGVYFCARYYDDHYSLDYWGQGTPVTVSSGGGGSGGGGSGGGGSDIQMTQSPSSLSASVGDRVTITCSASSSVSYMNWYQQTPGKAPKRWIYDTSKLASGVPSRFSGSGSGTDYTFTISSLQPEDIATYYCQQWSSNPFTFGQGTKLQITRGGGGSDIQMTQSPASLSASLGETVSIECLASEDIYSYLAWYQQKPGKSPQLLIFAANRLQDGVPSRFSGSGSGTQFSLKISGMQPEDEGDYFCLQGSKFPYTFGPGTKLELNRTVAAPSVFIFPPSDEQLKSGTASVVCLLNNFYPREAKVQWKVDNALQSGNSQESVTEQDSKDSTYSLSSTLTLSKADYEKHKVYACEVTHQGLSSPVTKSFNRGEC
notes: B3 Fab with hOKT3 scFv fused to the light chain N-terminus
In the case of B4, in test [1], the “EC50 … (calcein release, T-LAK effector cells)” value was 370 pM. Further, the equilibrium dissociation constant (Kd) in test [2] was found to be 0.00679 µM.

B5: Antibody 24 (bispecific antibody, human IgG1, kappa, L234A L235A)
heavy: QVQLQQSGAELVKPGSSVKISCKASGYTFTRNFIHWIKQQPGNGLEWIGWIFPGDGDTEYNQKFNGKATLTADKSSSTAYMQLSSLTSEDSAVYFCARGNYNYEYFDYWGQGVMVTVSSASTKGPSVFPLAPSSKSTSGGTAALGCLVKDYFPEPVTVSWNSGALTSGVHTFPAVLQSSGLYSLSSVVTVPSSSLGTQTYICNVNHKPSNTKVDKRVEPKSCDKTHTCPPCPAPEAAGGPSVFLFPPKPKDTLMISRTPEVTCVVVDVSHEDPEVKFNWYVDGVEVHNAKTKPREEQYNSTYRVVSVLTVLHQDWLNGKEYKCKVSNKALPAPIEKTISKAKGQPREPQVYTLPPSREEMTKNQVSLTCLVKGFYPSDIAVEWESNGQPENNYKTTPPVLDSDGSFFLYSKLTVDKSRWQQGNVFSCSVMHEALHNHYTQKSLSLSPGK
light: B4 light
notes: B3 IgG with hOKT3 scFv fused to the light chain N-terminus
In the case of B5, in test [1], the “EC50 … (calcein release, T-LAK effector cells)” value is 138 pM. This molecule displayed a Kd in test [2] of 0.000531 µM.

B6: Antibody 26 (bispecific antibody)
heavy: B2 heavy
light: B4 light
notes: B3 Fab with hOKT3 scFv fused to the N-termini of both the heavy and the light chain
As to B6, the “EC50 … (calcein release, T-LAK effector cells)” value in test [1] was 39 pM. This molecule also showed an equilibrium dissociation constant (Kd) in test [2] of 0.0123 µM.

B7: Antibody 27 (bispecific antibody)
heavy: QVQLQQSGAELVKPGSSVKISCKASGYTFTRNFIHWIKQQPGNGLEWIGWIFPGDGDTEYNQKFNGKATLTADKSSSTAYMQLSSLTSEDSAVYFCARGNYNYEYFDYWGQGVMVTVSSASTKGPSVFPLAPSSKSTSGGTAALGCLVKDYFPEPVTVSWNSGALTSGVHTFPAVLQSSGLYSLSSVVTVPSSSLGTQTYICNVNHKPSNTKVDKRVEPKSCGGGGSQVQLVQSGGGVVQPGRSLRLSCKASGYTFTRYTMHWVRQAPGKGLEWIGYINPSRGYTNYNQKVKDRFTISRDNSKNTAFLQMDSLRPEDTGVYFCARYYDDHYSLDYWGQGTPVTVSSGGGGSGGGGSGGGGSDIQMTQSPSSLSASVGDRVTITCSASSSVSYMNWYQQTPGKAPKRWIYDTSKLASGVPSRFSGSGSGTDYTFTISSLQPEDIATYYCQQWSSNPFTFGQGTKLQITRHHHHHH
light: B4 light
notes: B3 Fab with hOKT3 scFv at the heavy chain C-terminus and at the light chain N-terminus
In the case of B7, the “EC50 … (calcein release, T-LAK effector cells)” value in test [1] was 36 pM. For the same molecule, in test [2], the Kd is 0.0136 µM.

B8: Antibody 28 (bispecific antibody)
chain 1: QVTLKESGPVLVKPTETLTLTCTVSGYSITSDYAWNWIRQPPGKALEWLAYISYSGSTSYNPSLKSRLSITKDTSKSQVVLTMTNMDPVDTATYYCARDPPYYYGSWGQGTTVTVSSASTKGPSVFPLAPSSKSTSGGTAALGCLVKDYFPEPVTVSWNSGALTSGVHTFPAVLQSSGLYSLSSVVTVPSSSLGTQTYICNVNHKPSNTKVDKRVEPKSCGGGGSQVQLVQSGGGVVQPGRSLRLSCKASGYTFTRYTMHWVRQAPGKGLEWIGYINPSRGYTNYNQKVKDRFTISRDNSKNTAFLQMDSLRPEDTGVYFCARYYDDHYSLDYWGQGTPVTVSSGGGGSGGGGSGGGGSDIQMTQSPSSLSASVGDRVTITCSASSSVSYMNWYQQTPGKAPKRWIYDTSKLASGVPSRFSGSGSGTDYTFTISSLQPEDIATYYCQQWSSNPFTFGQGTKLQITRHHHHHH
chain 2: DVVMTQSPLSLPVTLGQPASISCKSSQSLLDSDGKTYLNWLQQRPGQSPRRLIYLVSKLDSGVPDRFSGSGSGTDFTLKISRVEAEDVGVYHCWQGTHFPYTFGGGTKVEIKRTVAAPSVFIFPPSDEQLKSGTASVVCLLNNFYPREAKVQWKVDNALQSGNSQESVTEQDSKDSTYSLSSTLTLSKADYEKHKVYACEVTHQGLSSPVTKSFNRGEC
notes: format not described
As to B8, the “EC50 … (calcein release, T-LAK effector cells)” value in test [1] was 5430 pM. Further, the equilibrium dissociation constant (Kd) in test [2] is 1480 µM.

B9: Antibody 29 (bispecific antibody)
chain 1: QVQLVQSGAEVKKPGASVKVSCKASGYSFTGYYIHWVRQAPGQGLEWIGYISAYNGASSYNQKFKGRATFTVDTSISTAYMELSRLRSDDTAVYYCASSMDYWGQGTLVTVSSASTKGPSVFPLAPSSKSTSGGTAALGCLVKDYFPEPVTVSWNSGALTSGVHTFPAVLQSSGLYSLSSVVTVPSSSLGTQTYICNVNHKPSNTKVDKRVEPKSCGGGGSQVQLVQSGGGVVQPGRSLRLSCKASGYTFTRYTMHWVRQAPGKGLEWIGYINPSRGYTNYNQKVKDRFTISRDNSKNTAFLQMDSLRPEDTGVYFCARYYDDHYSLDYWGQGTPVTVSSGGGGSGGGGSGGGGSDIQMTQSPSSLSASVGDRVTITCSASSSVSYMNWYQQTPGKAPKRWIYDTSKLASGVPSRFSGSGSGTDYTFTISSLQPEDIATYYCQQWSSNPFTFGQGTKLQITRHHHHHH
chain 2: B8 chain 2 with R50K, G105Q, V109L
notes: format not described
Turning to B9, the “EC50 … (calcein release, T-LAK effector cells)” value in test [1] was 634 pM. Besides, the Kd in test [2] was determined as 5.7 µM.
